Assay results published in article PMC3733360 (Structure (London, England : 1993), 2008).
Where a chain is given by its changes, count along the chain named. Names may count otherwise. Values belong to the binder of their own block, whether it stands above or below them.

What was measured:
[1] = biological target: T1, Snc2pS (soluble Snc2p, amino acids 1-93), wild type (yeast, UniProt P33328 1-93); assay: EPR line shape
T1 sequence (looked up): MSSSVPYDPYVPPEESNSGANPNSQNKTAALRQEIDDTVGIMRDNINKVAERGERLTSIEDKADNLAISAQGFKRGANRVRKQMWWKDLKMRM

[2] = biological target: T2, Sso1pHT (amino acids 185-290 of Sso1p lacking the regulatory Habc domain), wild type (yeast, UniProt P32867 185-290); assay: EPR line shape
T2 sequence (looked up): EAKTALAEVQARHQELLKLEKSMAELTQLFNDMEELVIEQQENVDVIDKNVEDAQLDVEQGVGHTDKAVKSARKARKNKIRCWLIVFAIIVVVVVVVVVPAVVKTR

[3] = biological target: T3, Sec9c (amino acids 401-651 of Sec9), wild type (yeast, UniProt P40357 401-651); assay: FRET or BRET
T3 sequence (looked up): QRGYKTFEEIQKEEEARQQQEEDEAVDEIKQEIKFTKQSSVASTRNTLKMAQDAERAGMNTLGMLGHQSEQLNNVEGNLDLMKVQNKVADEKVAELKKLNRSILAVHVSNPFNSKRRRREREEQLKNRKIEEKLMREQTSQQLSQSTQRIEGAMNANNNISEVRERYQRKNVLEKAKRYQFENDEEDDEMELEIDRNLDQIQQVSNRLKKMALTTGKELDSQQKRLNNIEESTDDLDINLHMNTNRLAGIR

B1: Sec9c D599C, spin labeled with MTSSL (SN2) (domain or fragment, yeast, UniProt P40357 401-651, looked up)
chain: T3 sequence (looked up) with D199C
modifications: MTSSL nitroxide spin label on cysteine 599
- percent of SN2 in an unstructured conformation (not in the complex) [1]: ~60%
- percent of SN2 in an unstructured conformation (not in the complex) [2]: ~60%

B3: Sec9c H641C, spin labeled with MTSSL (SN2) (domain or fragment, yeast, UniProt P40357 401-651, looked up)
chain: T3 sequence (looked up) with H241C
modifications: MTSSL nitroxide spin label on cysteine 641
- percent of SN2 in an unstructured conformation (not in the complex) [1]: ~60%
- percent of SN2 in an unstructured conformation (not in the complex) [2]: ~60%

B4: Sec9c D620C, spin labeled with MTSSL (SN2) (domain or fragment, yeast, UniProt P40357 401-651, looked up)
chain: T3 sequence (looked up) with D220C
modifications: MTSSL nitroxide spin label on cysteine 620
- percent of SN2 in an unstructured conformation (not in the complex) [1]: ~60%
- percent of SN2 in an unstructured conformation (not in the complex) [2]: ~60%

Results, then the binder that gave them:

- percent of SN2 in an unstructured conformation (not in the complex) [1]: ~60%
- percent of SN2 in an unstructured conformation (not in the complex) [2]: ~60%
B2: Sec9c N606C, spin labeled with MTSSL (SN2) (domain or fragment, yeast, UniProt P40357 401-651, looked up)
chain: T3 sequence (looked up) with N206C
modifications: MTSSL nitroxide spin label on cysteine 606

- percent of SN2 in an unstructured conformation (not in the complex) [1]: ~60%
- percent of SN2 in an unstructured conformation (not in the complex) [2]: ~60%
B5: Sec9c N627C, spin labeled with MTSSL (SN2) (domain or fragment, yeast, UniProt P40357 401-651, looked up)
chain: T3 sequence (looked up) with N227C
modifications: MTSSL nitroxide spin label on cysteine 627

- binding result [3]: binds
B6: Sso1pHT E185C labeled with Cy3 (domain or fragment, yeast, UniProt P32867 185-290, looked up)
chain: T2 sequence (looked up) with E1C
modifications: Cy3 maleimide on cysteine 185

- binding result [3]: binds
B7: full-length Snc2p (amino acids 1-115) P13C labeled with Cy5 (natural protein, yeast, UniProt P33328 1-115, looked up)
chain: MSSSVPYDPYVPCEESNSGANPNSQNKTAALRQEIDDTVGIMRDNINKVAERGERLTSIEDKADNLAISAQGFKRGANRVRKQMWWKDLKMRMCLFLVVIILLVVIIVPIVVHFS
modifications: Cy5 maleimide on cysteine 13
